This note sets out measurements from paper PMC6208443, “Arabidopsis AGDP1 links H3K9me2 to DNA methylation in heterochromatin” (Nature Communications, 2018).

The target in experiment [1] is RsAGDP1 AGD12 (residues 26–180) (Raphanus sativus). In words: ITC; Microcal PEAQ-ITC, 25 °C; protein at 0.1 mM, peptide at 1.0–1.5 mM in the same buffer; fit with Origin 7.0. Background: In ITC the heat of successive injections is recorded.
Experiment [2] concerns the target full-length AtAGDP1 (Arabidopsis thaliana) (UniProt Q500V5). The description is as above.

Usually stoichiometry N stands for the number of molecules, sites or subunits per partner or assembly.

Chain of full-length AtAGDP1 (Arabidopsis thaliana) (Q500V5 whole entry): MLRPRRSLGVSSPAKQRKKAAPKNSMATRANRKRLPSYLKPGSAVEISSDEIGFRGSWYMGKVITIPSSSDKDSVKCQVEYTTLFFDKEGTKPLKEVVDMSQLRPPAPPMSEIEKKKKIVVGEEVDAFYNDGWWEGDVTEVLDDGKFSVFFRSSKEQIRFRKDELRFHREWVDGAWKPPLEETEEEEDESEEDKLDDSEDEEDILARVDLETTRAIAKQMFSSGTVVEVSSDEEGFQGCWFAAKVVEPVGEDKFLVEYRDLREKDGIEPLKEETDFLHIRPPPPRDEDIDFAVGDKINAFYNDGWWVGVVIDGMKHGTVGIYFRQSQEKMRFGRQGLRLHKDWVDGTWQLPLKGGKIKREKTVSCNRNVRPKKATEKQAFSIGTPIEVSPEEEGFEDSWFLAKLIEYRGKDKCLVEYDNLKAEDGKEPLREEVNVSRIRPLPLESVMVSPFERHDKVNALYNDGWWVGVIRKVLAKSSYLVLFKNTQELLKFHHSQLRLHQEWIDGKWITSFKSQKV

In experiment [1], H3K4me3K9me2 peptide came in with a fold decrease of binding against H3K9me2 of 5 fold.
In turn, H3K9me2 peptide (ITC) showed a stoichiometry N in experiment [2] of 3.
